Earlier results on 1 substance are cited in patent US20210000129A1, “COMPOSITION FOR LOWERING BLOOD PRESSURE AND/OR REDUCING NEUTRAL FATS” (MORINAGA MILK INDUSTRY CO., LTD., priority 2018, published 2021).

Series [1] concerns the target angiotensin converting enzyme (Homo sapiens, UniProt P12821). The note with it: known from References 1 to 3.
For a further series, the target named is dipeptidyl-peptidase IV (Homo sapiens, UniProt P27487). The settings on record: known from References 1 to 3.
dipeptidyl-peptidase IV, sequence (P27487 whole entry, species assumed): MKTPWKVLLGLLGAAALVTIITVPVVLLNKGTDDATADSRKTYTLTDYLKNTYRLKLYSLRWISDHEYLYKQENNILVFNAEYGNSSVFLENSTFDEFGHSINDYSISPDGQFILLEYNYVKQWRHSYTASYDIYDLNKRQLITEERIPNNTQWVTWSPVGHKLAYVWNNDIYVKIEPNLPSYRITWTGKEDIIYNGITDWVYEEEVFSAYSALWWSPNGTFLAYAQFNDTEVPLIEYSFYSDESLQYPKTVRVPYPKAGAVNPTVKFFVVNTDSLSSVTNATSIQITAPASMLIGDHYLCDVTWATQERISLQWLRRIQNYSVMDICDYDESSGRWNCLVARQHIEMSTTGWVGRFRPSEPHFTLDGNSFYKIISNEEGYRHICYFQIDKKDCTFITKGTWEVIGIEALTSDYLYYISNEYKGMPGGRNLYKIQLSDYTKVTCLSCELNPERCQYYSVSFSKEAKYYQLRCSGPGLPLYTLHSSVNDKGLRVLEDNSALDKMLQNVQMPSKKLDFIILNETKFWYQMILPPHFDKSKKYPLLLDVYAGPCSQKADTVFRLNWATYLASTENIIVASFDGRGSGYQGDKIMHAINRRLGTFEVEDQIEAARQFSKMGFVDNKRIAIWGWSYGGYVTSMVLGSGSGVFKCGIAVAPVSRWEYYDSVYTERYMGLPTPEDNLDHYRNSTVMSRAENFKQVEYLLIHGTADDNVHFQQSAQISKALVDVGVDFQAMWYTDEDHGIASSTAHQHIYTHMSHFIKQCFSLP

angiotensin converting enzyme, sequence (P12821 30-1306, species assumed): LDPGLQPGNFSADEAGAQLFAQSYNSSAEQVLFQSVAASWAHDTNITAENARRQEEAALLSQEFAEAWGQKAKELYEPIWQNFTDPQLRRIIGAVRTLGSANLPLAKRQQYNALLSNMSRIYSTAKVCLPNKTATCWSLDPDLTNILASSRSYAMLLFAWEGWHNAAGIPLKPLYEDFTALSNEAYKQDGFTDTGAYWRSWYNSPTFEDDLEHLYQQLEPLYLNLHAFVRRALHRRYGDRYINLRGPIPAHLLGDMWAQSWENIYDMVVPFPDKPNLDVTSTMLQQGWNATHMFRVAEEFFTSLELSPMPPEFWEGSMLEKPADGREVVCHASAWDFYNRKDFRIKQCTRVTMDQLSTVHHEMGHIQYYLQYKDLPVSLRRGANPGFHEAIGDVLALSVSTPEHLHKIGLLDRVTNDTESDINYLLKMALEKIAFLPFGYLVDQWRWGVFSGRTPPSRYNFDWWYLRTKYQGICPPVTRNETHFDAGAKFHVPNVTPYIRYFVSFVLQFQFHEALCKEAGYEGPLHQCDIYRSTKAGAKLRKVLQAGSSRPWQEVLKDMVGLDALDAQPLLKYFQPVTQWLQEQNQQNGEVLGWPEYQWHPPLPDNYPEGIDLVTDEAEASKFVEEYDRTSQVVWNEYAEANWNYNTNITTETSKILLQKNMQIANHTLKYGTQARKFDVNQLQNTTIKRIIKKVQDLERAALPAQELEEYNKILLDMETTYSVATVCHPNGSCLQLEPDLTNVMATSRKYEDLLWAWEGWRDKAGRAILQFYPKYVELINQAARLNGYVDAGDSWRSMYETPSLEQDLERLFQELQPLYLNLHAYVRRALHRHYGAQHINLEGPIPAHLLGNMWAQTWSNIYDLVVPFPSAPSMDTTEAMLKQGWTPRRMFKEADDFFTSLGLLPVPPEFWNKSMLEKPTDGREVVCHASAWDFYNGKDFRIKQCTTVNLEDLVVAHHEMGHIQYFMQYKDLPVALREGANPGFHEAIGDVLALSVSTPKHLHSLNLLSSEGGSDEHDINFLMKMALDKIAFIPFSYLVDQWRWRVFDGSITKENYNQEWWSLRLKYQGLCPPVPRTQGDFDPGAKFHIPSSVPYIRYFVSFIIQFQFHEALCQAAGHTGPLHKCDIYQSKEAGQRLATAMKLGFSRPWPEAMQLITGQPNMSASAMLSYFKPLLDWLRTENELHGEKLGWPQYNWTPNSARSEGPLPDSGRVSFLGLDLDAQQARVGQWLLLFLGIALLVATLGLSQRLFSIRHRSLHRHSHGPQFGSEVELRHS

Consider Met-Lys-Pro (MKP) [tripeptide MKP], for which the “angiotensin converting enzyme-inhibiting action” value in series [1] is on record as “angiotensin converting enzyme-inhibiting action”. The “dipeptidyl-peptidase IV-inhibiting action” value in the series with dipeptidyl-peptidase IV is reported as “dipeptidyl-peptidase IV-inhibiting action”.
